Reference: patent US20190225670A1, “COMPOUNDS AND METHODS FOR ACTIVATING TIE2 SIGNALING” (ASCLEPIX THERAPEUTICS, LLC, priority 2016, published 2019)

Assays:
[1] = target: T1, β1 integrin subunit (Homo sapiens, UniProt P05556); test: Triton X-100 fractionation of MEC lysates, β1 integrin; format: cell-based
T1 construct: host or cells: human dermal microvascular endothelial cells (MEC)
From the text: Since β1 integrin is the only known β subunit to heterodimerize with the α5 integrin subunit, it unlikely that the as subunit, that was observed here in the insoluble fractions, originated from a heterodimeric integrin pair other than α5β1. Unfortunately, high background impaired the visualization of α5 integrin alone by immunofluorescence. Given the unexpected discovery that AXT107 dissociates the integrin heterodimer, this discovery was confirmed in several independent assays. […] Thus, interactions between Tie2 and heterodimerized α5β1 integrin appear to retain Tie2 at the EC-ECM interface.
(§1) The isolation of Triton X-100 soluble and insoluble fractions was performed using modifications to previously-described procedures (see, e.g., Lampugnani et al., J Cell Biol. 1995; 129(1):203-217). FN1-coated six-well plates were seeded with 2.5×10^6 cells and cultured for forty-eight hours, as described above. The cultures were then serum starved for ninety minutes in EBM-2 media, treated with 100 μM AXT107 or DMSO vehicle, and fifteen minutes with 1 mM sodium vanadate. The cells were then stimulated with either 100 ng/ml VEGFA, 400 ng/ml Ang2, or PBS for fifteen minutes. The plates were then transferred to ice and washed twice with cold dPBS containing Ca^2+ and Mg^2+ and twice with EBM-2 media. […] Samples were analyzed by western blot as described above. […]

[2] = target: T2, α5 integrin subunit (Homo sapiens, UniProt P08648); test: Triton X-100 fractionation of MEC lysates, α5 integrin; format: cell-based
T2 construct: host or cells: human dermal microvascular endothelial cells (MEC)
T2 sequence (P08648 42-894 limits assumed): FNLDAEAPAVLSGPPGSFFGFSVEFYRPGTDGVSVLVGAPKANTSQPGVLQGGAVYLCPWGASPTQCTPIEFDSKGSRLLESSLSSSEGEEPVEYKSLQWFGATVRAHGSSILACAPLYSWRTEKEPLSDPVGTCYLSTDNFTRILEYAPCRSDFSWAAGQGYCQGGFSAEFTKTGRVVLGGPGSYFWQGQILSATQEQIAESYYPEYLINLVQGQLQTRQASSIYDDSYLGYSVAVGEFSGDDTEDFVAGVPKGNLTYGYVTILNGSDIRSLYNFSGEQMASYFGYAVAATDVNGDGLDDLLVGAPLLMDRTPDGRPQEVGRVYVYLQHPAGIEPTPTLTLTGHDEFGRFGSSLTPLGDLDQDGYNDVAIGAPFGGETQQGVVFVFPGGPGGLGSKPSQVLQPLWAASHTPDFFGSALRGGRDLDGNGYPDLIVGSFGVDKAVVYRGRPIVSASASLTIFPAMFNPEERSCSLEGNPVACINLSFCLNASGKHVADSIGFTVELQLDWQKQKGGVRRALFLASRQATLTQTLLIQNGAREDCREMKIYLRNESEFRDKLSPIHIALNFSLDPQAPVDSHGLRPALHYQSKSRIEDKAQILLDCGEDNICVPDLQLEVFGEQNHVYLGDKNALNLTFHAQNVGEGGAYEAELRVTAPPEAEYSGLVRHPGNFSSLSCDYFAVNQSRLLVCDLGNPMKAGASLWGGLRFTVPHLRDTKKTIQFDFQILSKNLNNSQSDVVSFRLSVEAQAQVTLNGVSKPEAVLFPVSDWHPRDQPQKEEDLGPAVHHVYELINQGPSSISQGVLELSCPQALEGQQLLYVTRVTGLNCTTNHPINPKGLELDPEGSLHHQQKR
T2 sequence (P08648 895-1049 limits assumed): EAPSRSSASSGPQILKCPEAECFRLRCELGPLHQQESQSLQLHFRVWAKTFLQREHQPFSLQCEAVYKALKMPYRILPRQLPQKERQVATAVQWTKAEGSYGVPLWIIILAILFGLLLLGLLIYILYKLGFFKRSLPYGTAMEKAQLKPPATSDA
Experimental: α5β1-integrin heterodimer and αvβ3-integrin heterodimer are primary targets of AXT107.
as §1, with “The cells were then stimulated with either 100 ng/ml VEGFA, 400 ng/ml Ang2, or PBS for fifteen minutes.” left out, “media. The media was then removed and the cells incubated for thirty minutes on ice, at 4° C. in 200 μl of Triton X-100 extraction buffer (10 mM Tris-HCl, pH 7.5; 150 mM NaCl; 2 mM CaCl2); 1% NP-40; 1% […]; and a protease inhibitor cocktail (Cell Signaling, Cat#: 5871)) with occasional agitation. The extraction buffer was gently collected and centrifuged at 12,000×g for five minutes. The supernatant was then mixed with 125 μl of 3×Blue Loading Dye, boiled, and saved as the Triton X-100 soluble fraction at −20° C.” for “media.”

T1 sequence (P05556 21-798): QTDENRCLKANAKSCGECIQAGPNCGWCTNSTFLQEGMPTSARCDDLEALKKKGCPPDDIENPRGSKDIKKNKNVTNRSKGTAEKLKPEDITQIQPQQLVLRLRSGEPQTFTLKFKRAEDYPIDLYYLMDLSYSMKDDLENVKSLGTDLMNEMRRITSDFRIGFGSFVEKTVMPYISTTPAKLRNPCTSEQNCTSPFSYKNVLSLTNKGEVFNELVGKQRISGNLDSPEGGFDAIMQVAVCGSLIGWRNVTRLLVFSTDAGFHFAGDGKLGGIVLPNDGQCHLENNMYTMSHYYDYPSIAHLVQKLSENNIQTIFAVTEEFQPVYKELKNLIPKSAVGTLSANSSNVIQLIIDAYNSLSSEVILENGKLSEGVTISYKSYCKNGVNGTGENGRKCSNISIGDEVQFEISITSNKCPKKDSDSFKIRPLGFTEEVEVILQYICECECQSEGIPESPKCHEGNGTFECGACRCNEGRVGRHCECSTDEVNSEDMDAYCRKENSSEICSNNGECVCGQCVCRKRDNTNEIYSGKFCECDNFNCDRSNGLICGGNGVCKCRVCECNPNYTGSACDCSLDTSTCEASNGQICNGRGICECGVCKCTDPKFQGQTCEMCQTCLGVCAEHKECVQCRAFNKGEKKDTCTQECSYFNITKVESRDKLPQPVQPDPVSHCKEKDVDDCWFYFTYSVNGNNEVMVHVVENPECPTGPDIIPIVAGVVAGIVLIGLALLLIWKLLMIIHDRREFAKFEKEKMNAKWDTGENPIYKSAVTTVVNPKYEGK

## LRRFSTAPFAFIDINDVINF [AXT107]
[1]; 100 μM AXT107, long exposure times, high antibody concentrations
  β1 integrin subunit in insoluble fraction: never observed in the insoluble fraction
[1]; Triton X-100 fractionated lysates after AXT107 treatment, data not shown
  interactions of immunoprecipitated α5 integrin with β1: only found in the soluble fractions
[2]; 100 μM AXT107
  α5 integrin subunit location in fractionated lysates: relocated to the insoluble fraction
[2]; Triton X-100 fractionated lysates, with 200 ng/ml Ang2 or no growth factor
  α5 integrin after immunoprecipitation of Tie2: observed in the peptide-treated, insoluble fraction
